Experimental data as given in article doi:10.1101/754457, “Architecture of the Mto1/2 microtubule nucleation complex” (bioRxiv, 2019).

B4: 6xHis-TEV-Mto1[bonsai] (Mto1 residues 131-549) (domain or fragment, S. pombe, UniProt O94488 131-549, looked up)
chain: TTDDEQLSPVLTANQGFQSQEQYEEDSYNNYDYTSDPSSPNYISSSLDQLPHLDDEDDLQLTPIKEERNYLHSQDAPTTNALSKKISDILIPASAMKDLKDRKNALAKEFEESQPGSSLTLKEQANVIDNLRKEVFGLKLKCYFLYDQLNKFHDQEVQDIMKQNIDLKTLTMELQRAVAGYEKKISGLESRIKPDQSFNLSTPSPAPSNLITLQSRYSQALSELETTKRAFAALRKEKSKKTNYSVGAYNEDRNVLSNMLDNERREKEALLQELESLRVQLSKKVPMPAKNTDERVIETLQRSNELLRMDISMQNEALLLRKQENDRLVKQVEELTVALNSGKMNAIVEAESSKNELWDSMMVSRMKTQEQSIELTRLYKQLQDIEEDYENKLMRMEQQWREDVDQLQEYVEEITQELQ
notes: Mto1, S. pombe CM1 protein, residues 131-549 of full-length Mto1 (1115 residues); a TEV site lies between the 6xHis tag and Mto1; Dimeric by SEC-MALS; No TEV cleavage is described; also called 6xHis-tagged Mto1[bonsai]; source: Sf9 (MultiBac baculovirus), purified (nickel chelate, Superose 6 SEC); expressed alone or co-expressed with untagged Mto2; not shown: His6, N-terminal, kept

Experiments:
[1] = target: the molecule itself; assay: SEC-MALS; Superdex 75 10/300 for protein fragments; NND injected at ∼5 mg/mL (600 µM) and a dilution series, TCD at ∼10 mg/mL (1000 µM) and a dilution series
[2] = target: the molecule itself; assay: ITC; dilution series, 25°C, iTC200; 100 µM NND injected (20 x 2 µL) into 50 mM Tris-HCl pH 8.0, 150 mM NaCl, 2 mM EDTA; dimer dissociation model; dimer to monomers
[3] = target: the molecule itself; assay: cross-linking; intermolecular disulfide between engineered cysteines; SDS-PAGE with and without β-mercaptoethanol
[4] = target: the molecule itself; assay: SEC-MALS; Superose 6 10/300 for full-length proteins and complexes; injected at ∼4.5 mg/mL (Mto1/2[bonsai]), ∼1.3 mg/mL (Mto1[bonsai]), ∼1.6 mg/mL (Mto2), 1.4 mg/mL (Mto2-134A136A), 1.3 mg/mL (Mto2-134AAA)
[5] = target: the molecule itself; assay: SEC; SEC-dilution analysis, Superose 6 10/300, 4°C, 100 µL loaded; undiluted ∼9 mg/mL (co-purified Mto1/2[bonsai]), ∼1.5 mg/mL (Mto1[bonsai]), ∼2.5 mg/mL (Mto2), and 10X dilution; fractions by SDS-PAGE and western blot
[6] = target: the molecule itself; assay: cross-linking; EDC/Sulfo-NHS zero-length cross-linking with mass spectrometry (CLMS) of co-purified Mto1/2[bonsai] complex; phosphate pH 7.5, 300 mM NaCl, 5% glycerol, 2 h at 18°C
[7] = target: B4; assay: SEC; SEC-dilution analysis, Superose 6 10/300, 4°C, 100 µL loaded; undiluted ∼9 mg/mL (co-purified Mto1/2[bonsai]), ∼1.5 mg/mL (Mto1[bonsai]), ∼2.5 mg/mL (Mto2), and 10X dilution; fractions by SDS-PAGE and western blot; conditions: both partners purified

B1: Mto2 Near-N-terminal Domain (NND; Mto2 residues 78-153) (domain or fragment, S. pombe, UniProt Q9USP7 78-153, looked up)
chain: PLYSPSWPSLADANVNSMKSNNAIQEHKAAKFVSEKSLEKVSTADNNLVLQELENLRERLNQVELQLSERPSSYLG
notes: Mto2, S. pombe, residues 78-153 (NND); Weak homodimer that dissociates upon dilution; also called wild-type NND; source: E. coli BL21(DE3) pRIL, purified (glutathione-sepharose, TEV cleavage, SEC); not shown: GST, N-terminal, cleaved
[1]
  stoichiometry N: 2
[2]
  Kd: 15 µM

B2: NND-R147C (domain or fragment, S. pombe, UniProt Q9USP7 78-153, looked up)
chain: PLYSPSWPSLADANVNSMKSNNAIQEHKAAKFVSEKSLEKVSTADNNLVLQELENLRERLNQVELQLSECPSSYLG
notes: Mto2, S. pombe, residues 78-153 (NND) with R147C; Disulfide-linked dimer under non-reducing conditions; source: E. coli BL21(DE3) pRIL, purified (glutathione-sepharose, TEV cleavage, SEC); not shown: GST, N-terminal, cleaved
[3]
  binding result: binds

B3: NND-N123C (domain or fragment, S. pombe, UniProt Q9USP7 78-153, looked up)
chain: PLYSPSWPSLADANVNSMKSNNAIQEHKAAKFVSEKSLEKVSTADCNLVLQELENLRERLNQVELQLSERPSSYLG
notes: Mto2, S. pombe, residues 78-153 (NND) with N123C; Disulfide-linked dimer under non-reducing conditions; source: E. coli BL21(DE3) pRIL, purified (glutathione-sepharose, TEV cleavage, SEC); not shown: GST, N-terminal, cleaved
[3]
  binding result: binds

## B4
[4]
  stoichiometry N: 2

B5: 6xHis-tagged Mto2 (natural protein, S. pombe, UniProt Q9USP7 1-397, looked up)
chain: MSEHNYQSDREVAEDPFLNYEASANQLSSNSRESTPRGSPWRAGMRSASLMTEPLEDSMYSDNNYLDNGVSFTKDENPLYSPSWPSLADANVNSMKSNNAIQEHKAAKFVSEKSLEKVSTADNNLVLQELENLRERLNQVELQLSERPSSYLGYHNNLSPYRSPNSYPSLLPSTHSPHSPAPLSTMQTALMRLRTYHPSPIILKPVEQAVNHAITLVNTSPSSVVDALCRSLAELCLGLVQEAIDASILSQQESSNSLDLVRHTPPLNYTSSVDSSPQRMASDSYGRPSLHLNDPFPSVDLQSNELSHHNVRTTLFSDDSRFHSKIHTHSTPPSQMYSAASHFRYRSDPSTRHVSNSTNKSSLHPSPTSLRVAHPIIPQRASPASQSFPSLQDTPSP
notes: Forms a range of multimers; Construct described in Leong et al., 2019; also called wild-type Mto2; 6xHis-Mto2; source: Sf9 (MultiBac baculovirus), purified (nickel chelate, Superose 6 SEC); also Sf9 co-infected with GST-Mto1[bonsai] virus, in lysate
[5]
  binding result: binds

B6: Mto2, untagged, co-expressed with 6xHis-Mto1[bonsai] (natural protein, S. pombe, UniProt Q9USP7 1-397, looked up)
chain: MSEHNYQSDREVAEDPFLNYEASANQLSSNSRESTPRGSPWRAGMRSASLMTEPLEDSMYSDNNYLDNGVSFTKDENPLYSPSWPSLADANVNSMKSNNAIQEHKAAKFVSEKSLEKVSTADNNLVLQELENLRERLNQVELQLSERPSSYLGYHNNLSPYRSPNSYPSLLPSTHSPHSPAPLSTMQTALMRLRTYHPSPIILKPVEQAVNHAITLVNTSPSSVVDALCRSLAELCLGLVQEAIDASILSQQESSNSLDLVRHTPPLNYTSSVDSSPQRMASDSYGRPSLHLNDPFPSVDLQSNELSHHNVRTTLFSDDSRFHSKIHTHSTPPSQMYSAASHFRYRSDPSTRHVSNSTNKSSLHPSPTSLRVAHPIIPQRASPASQSFPSLQDTPSP
notes: Mto2, S. pombe; for coexpression the tag was present only on Mto1[bonsai]; Construct described in Leong et al., 2019; also called Mto2 (of the Mto1/2[bonsai] complex); source: Sf9 (MultiBac baculovirus), co-expressed and co-purified with 6xHis-Mto1[bonsai]
[6]
  binding result: binds
[7]
  stoichiometry N: ~1

B7: Mto1/2[bonsai] complex (complex, S. pombe)
chain 1: TTDDEQLSPVLTANQGFQSQEQYEEDSYNNYDYTSDPSSPNYISSSLDQLPHLDDEDDLQLTPIKEERNYLHSQDAPTTNALSKKISDILIPASAMKDLKDRKNALAKEFEESQPGSSLTLKEQANVIDNLRKEVFGLKLKCYFLYDQLNKFHDQEVQDIMKQNIDLKTLTMELQRAVAGYEKKISGLESRIKPDQSFNLSTPSPAPSNLITLQSRYSQALSELETTKRAFAALRKEKSKKTNYSVGAYNEDRNVLSNMLDNERREKEALLQELESLRVQLSKKVPMPAKNTDERVIETLQRSNELLRMDISMQNEALLLRKQENDRLVKQVEELTVALNSGKMNAIVEAESSKNELWDSMMVSRMKTQEQSIELTRLYKQLQDIEEDYENKLMRMEQQWREDVDQLQEYVEEITQELQ
chain 2: MSEHNYQSDREVAEDPFLNYEASANQLSSNSRESTPRGSPWRAGMRSASLMTEPLEDSMYSDNNYLDNGVSFTKDENPLYSPSWPSLADANVNSMKSNNAIQEHKAAKFVSEKSLEKVSTADNNLVLQELENLRERLNQVELQLSERPSSYLGYHNNLSPYRSPNSYPSLLPSTHSPHSPAPLSTMQTALMRLRTYHPSPIILKPVEQAVNHAITLVNTSPSSVVDALCRSLAELCLGLVQEAIDASILSQQESSNSLDLVRHTPPLNYTSSVDSSPQRMASDSYGRPSLHLNDPFPSVDLQSNELSHHNVRTTLFSDDSRFHSKIHTHSTPPSQMYSAASHFRYRSDPSTRHVSNSTNKSSLHPSPTSLRVAHPIIPQRASPASQSFPSLQDTPSP
notes: Mto1, S. pombe, residues 131-549 of full-length Mto1 (Mto1[bonsai]); Mto2, S. pombe, untagged in the co-expression; Near-equal stoichiometry of the two chains; a range of multimer sizes, so no copy numbers; also called 6xHis-tagged Mto1/2[bonsai]; recombinant Mto1/2[bonsai]; source: Sf9 (MultiBac baculovirus), co-expressed, purified (nickel chelate, Superose 6 SEC); not shown: His6, N-terminal, …
[4]
  binding result: binds

B8: Mto2 Twin-Cysteine Domain (TCD; Mto2 residues 180-265) (domain or fragment, S. pombe, UniProt Q9USP7 180-265, looked up)
chain: PAPLSTMQTALMRLRTYHPSPIILKPVEQAVNHAITLVNTSPSSVVDALCRSLAELCLGLVQEAIDASILSQQESSNSLDLVRHTP
notes: Mto2, S. pombe, residues 180-265 (TCD); Residues 180-250 (chain A) and 180-248 (chain B) are built in the structure; source: E. coli BL21(DE3) pRIL, purified (glutathione-sepharose, TEV cleavage, SEC); selenomethionine-labelled protein from B834(DE3); not shown: GST, N-terminal, cleaved
[1]
  stoichiometry N: 2
